The values that follow come from US6025158A, “Nucleic acids encoding humanized anti-IL-8 monoclonal antibodies” (Genentech, Inc., dated 2000).

Where a chain is given by its changes, count along the chain named. Names and notes keep the numbering of the source. Read-outs that look alike come from different tables or passages of the source. Where only a bound is given, the exact number is not on record here.

In assay [1] the target is T1, recombinant human IL-8, (ser-IL-8)72 (human, UniProt P10145). Put plainly: inhibition of 125I-IL-8 binding to human neutrophils.
The target of assay [2] is IL-8 (Homo sapiens, UniProt P10145). Put plainly: human (wild type) IL-8 mediated neutrophil chemotaxis. Format: cell-based. The protocol: Human neutrophils were isolated, counted and resuspended at 5×10^6 cells/ml in Hank's balanced salt solution (abbreviated HBSS; without calcium and magnesium) with 0.1% bovine serum albumin. The neutrophils were labeled by adding calcein AM (Molecular Probe, Eugene, Oreg.) at a final concentration of 2.0 μM. Following a 30 minute incubation at 37° C., cells were washed twice with HBSS-BSA and resuspended at 5×10^6 cells/ml.
Chemotaxis experiments were carried out in a Neuro Probe (Cabin John, Md.) 96-well chamber, model MBB96. […] 100 μl of the calcein AM-labeled neutrophils were added to the upper chambers and allowed to migrate through a 5 micrometer porosity PVP free polycarbonate framed filter (Neuro Probe Inc.) toward the bottom chamber sample. The chemotaxis apparatus was then incubated for 40 to 60 minutes at 37° C. with 5% CO2. At the end of the incubation, neutrophils remaining in the upper chamber were aspirated and upper chambers were washed three times with PBS. Then the polycarbonate filter was removed, non-migrating cells were wiped off with a squeegee wetted with PBS, and the filter was air dried for 15 minutes.
The relative number of neutrophils migrating through the filter (Neutrophil migration index) was determined by measuring fluorescence intensity of the filter and the fluorescence intensity of the contents of the lower chamber and adding the two values together. Fluorescence intensity was measured with a CytoFluor 2300 fluorescent plate reader (Millipore Corp. Bedford, Mass.) configured to read a Corning 96-well plate using the 485-20 nm excitation filter and a 530-25 emission filter, with the sensitivity set at 3.
The affinity matured Fab variant, 6G4V11N35E, was tested for its ability to inhibit IL-8 mediated neutrophil chemotaxis as described in Section (B)(2) above. The reuseable 96-well chemotaxis chamber described in Section (B)(2) was replaced with endotoxin-free disposable chemotaxis chambers containing 5-micron PVP-free polycarbonate filters (ChemoTx101-5, Neuro Probe, Inc. Cabin John, Md.).

Assay [3] concerns the target T1, recombinant human IL-8, (ser-IL-8)72.
The target is the same in assay [4]. The assay is described as follows: competitive binding RIP, Scatchard.
The target is the same in assay [5]. Put plainly: 125I-IL-8 neutrophil competition; against F(ab)-1.
The target is the same in assay [6]. Put plainly: inhibition of 125I-IL-8 binding to human neutrophils. The source holds these as a separate data set.
The target of assay [7] is IL-8 binding to IL-8 receptors on human neutrophils (Homo sapiens, UniProt P10145). Put plainly: inhibition of 125I-IL-8 binding to human neutrophils (competition binding assay). The note with it: for IC50: humanized 6G425 variants, Table 4, read-out: IC50 Mean (concentration of variant necessary to inhibit binding of iodinated IL8 to human neutrophils).
The target of assay [8] is T1, recombinant human IL-8, (ser-IL-8)72. The source holds these as a separate data set.
In assay [9] the target is human monomeric IL-8 (human).
The target of assay [10] is rhesus IL-8 (rhesus, UniProt P67813). Put plainly: cell-based or functional assay.
The target of assay [11] is T1, recombinant human IL-8, (ser-IL-8)72. The assay is described as follows: competition phage ELISA (K64C IL-8 coated, free IL-8). The source says:
The first step of the assay requires that the concentrations of the phage carrying the wild type and mutated antibodies be normalized, allowing a comparison of the relative affinities of each antibody.
(ELISA stands for enzyme-linked immunosorbent assay.)

Assay [12] shares this target. This is another data set of the same source.
The target in assay [13] is human monomeric IL-8 (human). The source holds these as a separate data set.
Assay [14] deals with T2, rabbit IL-8 (rabbit, UniProt P19874).
T2 sequence: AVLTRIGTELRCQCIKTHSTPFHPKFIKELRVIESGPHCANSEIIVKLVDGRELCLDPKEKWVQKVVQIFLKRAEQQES
The assay is described as follows: cell-based or functional assay.

Take rhu4D5 F(ab) (Fab): in [1], the IC50 is above 200000 nM.

B1: F(ab)-8: humanized variant, F(ab)-6 with ArgH38Lys (protein)
light: DIQMTQSPSSLSASVGDRVTITCRSSQSLVHGIGNTYLHWYQQKPGKAPKLLIYKVSNRFSGVPSRFSGSGSGTDFTLTISSLQPEDFATYYCSQSTHVPLTFGQGTKVEIKRTVAAPSVFIFPPSDEQLKSGTASVVCLLNNFYPREAKVQWKVDNALQSGNSQESVTEQDSKDSTYSLSSTLTLSKADYEKHKVYACEVTHQGLSSPVTKSFNRGEC
heavy: EVQLVESGGGLVQPGGSLRLSCAASGYSFSSHYMHWVKQAPGKGLEWVGYIDPSNGETTYNQKFKGRFTLSRDNSKNTAYLQMNSLRAEDTAVYYCARGDYRYNGDWFFDVWGQGTLVTVSSASTKGPSVFPLAPSSKSTSGGTAALGCLVKDYFPEPVTVSWNSGALTSGVHTFPAVLQSSGLYSLSSVVTVPSSSLGTQTYICNVNHKPSNTKVDKKVEPKSCDKTHT
On to B1, for which the IC50 in assay [2] (read-out: IC50, human wild type IL-8 mediated neutrophil chemotaxis) came to 12 nM.

B2: 6G4V11N35E Fab: affinity matured variant of humanized 6G4V11 Fab with Glu at position 35 of CDR-L1 (protein)
light: B1 light with N35E
heavy: B1 heavy with E6Q, K38R
Turning to B2, in assay [2] (2 nM IL-8, disposable chemotaxis chambers, read-out: IC50, human IL-8 mediated neutrophil chemotaxis), the IC50 was around 1.2 nM. Also, in [2] (2 nM stimulus of rabbit or human IL-8, compared with buffer control), the “inhibition of chemotaxis at 3.7 nM-33 nM” value was “could completely inhibit this response”.

B3: monoclonal antibody 5.12.14 (antibody, V domains shown)
VH: EVQLVESGGGLVPPGGSLKLSCAASGFIFSSYGMSWVRQTPGKSLELVATINNNGDSTYYPDSVKGRFTISRDNAKNTLYLQMSSLKSEDTAMFYCARALISSATWFGYWGQGTLVTVSA
VL: DIVMTQSQKFMSTSVGDRVSVTCKASQNVGTNVAWYQQKPGQSPKALIYSSSYRYSGVPDRFTGSGSGTDFTLTISHVQSEDLADYFCQQYNIYPLTFGPGTKLELKR
B3: the neutrophil chemotaxis induced by IL-8 (Boyden chamber) in [3] came to 70%. Besides, the Kd (as a rule, the concentration at which binding is half-saturated) in assay [4] turned out to be 0.3 nM.

B4: 5.12.14 Fab: recombinant human-murine chimeric Fab of 5.12.14 (protein)
light: DIVMTQSQKFMSTSVGDRVSVTCKASQNVGTNVAWYQQKPGQSPKALIYSSSYRYSGVPDRFTGSGSGTDFTLTISHVQSEDLADYFCQQYNIYPLTFGPGTKLELRRAVAAPSVFIFPPSDEQLKSGTASVVCLLNNFYPREAKVQWKVDNALQSGNSQESVTEQDSKDSTYSLSSTLTLSKADYEKHKVYACEVTHQGLSSPVTKSFNRGEC
heavy: EVQLVESGGGLVPPGGSLKLSCAASGFIFSSYGMSWVRQTPGKSLELVATINNNGDSTYYPDSVKGRFTISRDNAKNTLYLQMSSLKSEDTAMFYCARALISSATWFGYWGQGTLVTVSAASTKGPSVFPLAPSSKSTSGGTAALGCLVKDYFPEPVTVSWNSGALTSGVHTFPAVLQSSGLYSLSSVVTVPSSSLGTQTYICNVNHKPSNTKVDKKVEPKSCDKTHT
Regarding B4, the “inhibition of human IL-8 mediated neutrophil chemotaxis / migration” value in assay [2] is reported as “demonstrates the inhibition of human IL-8 mediated neutrophil chemotaxis”.

B5: humanized 6G425 F(ab)-2 (Fab, V domains shown)
VH: EVQLVESGGGLVQPGGSLRLSCAASGYSFSSHYMHWVRQAPGKGLEWVGYIDPSNGETTYNQKFKGRATISRDNSKNTLYLQMNSLRAEDTAVYYCAARGDYRYNGDWFFDVWGQGT
VL: DIQMTQSPSSLSASVGDRVTITCRSSQSLVHGIGNTYLHWYQQKPGKAPKLLIYYKVSNRFSGVPSRFSGSGSGTDFTLTISSLQPEDFATYYCSQSTHVPLTFGQGTKVEIKR
Consider B5, for which, in assay [5], the “fold decrease in IL-8 binding” value is below 2 fold. Also, the IC50 in [6] was 106 nM.

B6: F(ab)-7: humanized variant, F(ab)-6 with LeuH80Val (antibody, V domains shown)
VL: B5 VL
VH: B5 VH with A68F, I70L, L79A, L81V
On to B6, for which the IC50 in assay [7] was 38.4 nM.

B7: humanized 6G425 F(ab)-3 (Fab, V domains shown)
VH: B5 VH with A68F, R72V
VL: B5 VL
On to B7, for which the “fold decrease in IL-8 binding” value in assay [5] was below 2 fold. The IC50 in assay [6] is 79.8 nM.

B8: F(ab)-6: humanized variant, F(ab)-1 with IleH69Leu and LeuH78Ala (antibody, V domains shown)
VL: B5 VL
VH: B5 VH with A68F, I70L, L79A
For the molecule B8, the “increase in affinity for IL-8” value in [7] (compared to F(ab)-1) is given as “approximately 2 fold”. For the same molecule, the IC50 in [7] is 34.6 nM.

B9: 6G4.2.5 Fab: recombinant human-murine chimeric Fab of 6G4.2.5 (protein)
light: DIVMTQTPLSLPVSLGDQASISCRSSQSLVHGIGNTYLHWYLQKPGQSPKLLIYKVSNRFSGVPDRFSGSGSGTDFTLRISRVEAEDLGLYFCSQSTHVPLTFGAGTKLELKRAVAAPTVFIFPPSSEQLKSGTASVVCLLNNFYPREAKVQWKVDNALQSGNSQESVTEQDSKDSTYSLSSTLTLSKADYEKHKVYACEVTHQGLSSPVTKSFNRGEC
heavy: EIQLQQSGPELMKPGASVKISCKASGYSFSSHYMHWVKQSHGKSLEWIGYIDPSNGETTYNQKFKGKATLTVDTSSSTANVHLSSLTSDDSAVYFCARGDYRYNGDWFFDVWGAGTTVTVSSASTKGPSVFPLAPSSKSTSGGTAALGCLVKDYFPEPVTVSWNSGALTSGVHTFPAVLQSSGLYSLSSVVTVPSSSLGTQTYICNVNHKPSNTKVDKKVEPKSCDKTHT
Consider B9, for which, in assay [2], the “inhibition of human IL-8 mediated neutrophil chemotaxis / migration” value is on record as “demonstrates the inhibition of human IL-8 mediated neutrophil chemotaxis”.

B10: humanized 6G425 F(ab)-9 (Fab, V domains shown)
VH: EVQLVQSGGGLVQPGGSLRLSCAASGYSFSSHYMHWVRQAPGKGLEWVGYIDPSNGETTYNQKFKGRFTLSRDNSKNTAYLQMNSLRAEDTAVYYCARGDYRYNGDWFFDVWGQGTLVTVSS
VL: DIQMTQSPSSLSASVGDRVTITCRSSQSLVHGIGNTYLHWYQQKPGKAPKLLIYKVSNRFSGVPSRFSGSGSGTDFTLTISSLQPEDFATYYCSQSTHVPLTFGQGTKVEIKR
On to B10, for which the results for the IC50, IL-8 mediated neutrophil chemotaxis in [8], in assay [9] and in assay [10] were 12 nM, 15 nM and around 22 nM, respectively.

B11: h6G4V11 alanine mutant Y37A (CDR-L1) (Fab, V domains shown)
VH: B10 VH
VL: B10 VL with Y37A
In the case of B11, in [11], the binding result is listed as “no binding”.

B12: 6G4V11N35A F(ab')2 leucine zipper (antibody, V domains shown)
VH: B10 VH
VL: B10 VL with N35A
Consider B12, for which the IC50, human IL-8 mediated neutrophil chemotaxis in [12] amounted to 1.5 nM. Moreover, the IC50, IL-8 mediated neutrophil chemotaxis in assay [13] is 1 nM; in assay [14] it was 4 nM.

B13: humanized 6G425 F(ab)-8 (Fab, V domains shown)
VH: B10 VH with Q6E, R38K
VL: B10 VL
As for B13, the “IC50, IL-8 mediated neutrophil chemotaxis” value in assay [10] is 10 nM.

B14: h6G4V11 alanine mutant H98A (CDR-L3) (Fab, V domains shown)
VH: B10 VH
VL: B10 VL with H98A
Take B14: in [11], the IC50 amounted to 8 nM.
